We go through 1 molecule from publication PMC10208975, “TCF7L2 acts as a molecular switch in midbrain to control mammal vocalization through its DNA binding domain but not transcription activation domain”.

Common to all, as to details: protein: recombinant; tags: MBP (pMAL-cRI); only one strand given
Series [1] addresses TCF7L2 HMG box WT (MBP fusion) (UniProt Q924A0 327-395). Kind of series: EMSA; dose-dependent; 50 mM NaCl, 20 mM Tris-HCl (pH not stated), 1 mM DTT, 1 mM MgCl2, 5% glycerol, 1 h at 25 C; 6% native PAGE.
The target of series [2] is TCF7L2 HMG box Y337F (MBP fusion) (UniProt Q924A0 327-395, Y337F). Kind of series: EMSA; binding largely retained; 50 mM NaCl, 20 mM Tris-HCl (pH not stated), 1 mM DTT, 1 mM MgCl2, 5% glycerol, 1 h at 25 C; 6% native PAGE. A general note: Mobility shift assays separate free from complexed probe on a gel.
In series [3] the target is TCF7L2 HMG box Y337S (MBP fusion) (UniProt Q924A0 327-395, Y337S). The series can be described thus: EMSA; 50 mM NaCl, 20 mM Tris-HCl (pH not stated), 1 mM DTT, 1 mM MgCl2, 5% glycerol, 1 h at 25 C; 6% native PAGE.
Series [4] addresses TCF7L2 HMG box Y337E (MBP fusion) (UniProt Q924A0 327-395, Y337E). Described as above.
The target of series [5] is TCF7L2 HMG box Y337H (MBP fusion) (UniProt Q924A0 327-395, Y337H). Described as above.
Sequence of TCF7L2 HMG box Y337H (MBP fusion) (Q924A0 327-395 Y337H): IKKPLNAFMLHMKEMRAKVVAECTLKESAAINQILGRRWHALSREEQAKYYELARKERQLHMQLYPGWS

Sequence of TCF7L2 HMG box WT (MBP fusion) (Q924A0 327-395): as the sequence (Q924A0 327-395 Y337H) above, with H11Y counted along it
Sequence of TCF7L2 HMG box Y337F (MBP fusion) (Q924A0 327-395 Y337F): as the sequence (Q924A0 327-395 Y337H) above, with H11F counted along it
Sequence of TCF7L2 HMG box Y337S (MBP fusion) (Q924A0 327-395 Y337S): as the sequence (Q924A0 327-395 Y337H) above, with H11S counted along it
Sequence of TCF7L2 HMG box Y337E (MBP fusion) (Q924A0 327-395 Y337E): as the sequence (Q924A0 327-395 Y337H) above, with H11E counted along it

B1: HMG-binding sequence probe (dsDNA)
DNA 1: TAGACGTAGGGCACCCTTTGAAGCTCTCCCTCGA
DNA 2: TCGAGGGAGAGCTTCAAAGGGTGCCCTACGTCTA
Consider B1, for which the binding result in series [1] is recorded as “binds”; in series [2], “binds”; in series [3], “no binding”; in series [4], “no binding”; in series [5], “no binding”.
